In patent US20230391876A1 (HANALL BIOPHARMA, published 2023):
Where a chain is given by its changes, count along the chain named. Numbers in names are those of the source.

B1: HL161AN (antibody, human IgG1, V domains shown)
VL: SYVLTQPPSVSVAPGQTARITCGGNNIGSTSVHWYQQKPGQAPVLVVHDDSDRPSGIPERFSGSNSGNTATLTISRVEAGDEADYYCQVRDSSSDHVIFGGGTKLTVLGQPKAAPSVTL
VH: EVQLLESGGGLVQPGGSLRLSCAASEFTFGSCVMTWVRQAPGKGLEWVSVISGSGGSTYYADSVKGRFTISRDNSKNTLYLQMNSLRAEDTAVYYCAKTPWWLRSPFFDYWGQGTLVTVSS
notes: also called HL161AN RS
B2: HL161AN variant No. 1 (LC:N25S, HC:C32S) (antibody, V domains shown)
VL: B1 VL with N25S
VH: B1 VH with C32S
notes: also called HL161ANS; #1 (HL161ANS)
B3: HL161AN variant No. 12 (LC:N25Q, HC:C32S) (antibody, V domains shown)
VL: B1 VL with N25Q
VH: B1 VH with C32S
notes: also called HL161ANQ; #12 (HL161ANQ)
B4: HL161AN variant No. 16 (LC:N25Q, HC:Q82E) (antibody, human IgG1, V domains shown)
VL: B1 VL with N25Q
VH: B1 VH with Q82E
notes: Variable domains only
B5: HL161AN variant No. 7 (LC:N25S, HC:C32S Q82T) (antibody, human IgG1, V domains shown)
VL: B1 VL with N25S
VH: B1 VH with C32S, Q82T
notes: Variable domains only
B6: HL161AN variant No. 14 (LC:N25Q, HC:Q82S) (antibody, human IgG1, V domains shown)
VL: B1 VL with N25Q
VH: B1 VH with Q82S
notes: Variable domains only
B7: HL161AN variant No. 10 (LC:N25S, HC:C32Y Q82T) (antibody, human IgG1, V domains shown)
VL: B1 VL with N25S
VH: B1 VH with C32Y, Q82T
notes: Variable domains only
B8: HL161AN variant No. 20 (LC:N25Q, HC:C32Y Q82S) (antibody, human IgG1, V domains shown)
VL: B1 VL with N25Q
VH: B1 VH with C32Y, Q82S
notes: Variable domains only
B9: HL161AN variant No. 19 (LC:N25Q, HC:C32S Q82E) (antibody, V domains shown)
VL: B1 VL with N25Q
VH: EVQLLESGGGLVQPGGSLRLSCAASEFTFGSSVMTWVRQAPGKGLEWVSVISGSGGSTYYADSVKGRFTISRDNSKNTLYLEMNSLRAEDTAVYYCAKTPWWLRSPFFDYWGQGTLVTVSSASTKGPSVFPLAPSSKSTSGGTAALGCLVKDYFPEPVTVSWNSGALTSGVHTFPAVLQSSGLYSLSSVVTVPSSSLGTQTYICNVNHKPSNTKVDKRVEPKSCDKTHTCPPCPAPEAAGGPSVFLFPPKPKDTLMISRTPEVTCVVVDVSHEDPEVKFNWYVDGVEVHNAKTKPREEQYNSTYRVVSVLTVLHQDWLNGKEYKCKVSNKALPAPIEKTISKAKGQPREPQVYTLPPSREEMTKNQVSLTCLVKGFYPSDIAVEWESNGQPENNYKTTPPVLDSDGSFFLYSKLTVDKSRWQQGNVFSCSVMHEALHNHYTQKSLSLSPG
notes: also called HL161ANQE; copies: 2 + 2
B10: HL161AN variant No. 6 (LC:N25S, HC:C32S Q82S) (antibody, human IgG1, V domains shown)
VL: B1 VL with N25S
VH: B1 VH with C32S, Q82S
notes: Variable domains only
B11: HL161AN variant No. 18 (LC:N25Q, HC:C32S Q82T) (antibody, human IgG1, V domains shown)
VL: B1 VL with N25Q
VH: B1 VH with C32S, Q82T
notes: Variable domains only
B12: HL161AN variant No. 21 (LC:N25Q, HC:C32Y Q82T) (antibody, human IgG1, V domains shown)
VL: B1 VL with N25Q
VH: B1 VH with C32Y, Q82T
notes: Variable domains only
B13: HL161AN variant No. 4 (LC:N25S, HC:Q82T) (antibody, human IgG1, V domains shown)
VL: B1 VL with N25S
VH: B1 VH with Q82T
notes: Variable domains only
B14: HL161AN variant No. 17 (LC:N25Q, HC:C32S Q82S) (antibody, human IgG1, V domains shown)
VL: B1 VL with N25Q
VH: B1 VH with C32S, Q82S
notes: Variable domains only
B15: HL161AN variant No. 15 (LC:N25Q, HC:Q82T) (antibody, human IgG1, V domains shown)
VL: B1 VL with N25Q
VH: B1 VH with Q82T
notes: Variable domains only
B16: HL161AN variant No. 9 (LC:N25S, HC:C32Y Q82S) (antibody, human IgG1, V domains shown)
VL: B1 VL with N25S
VH: B1 VH with C32Y, Q82S
notes: Variable domains only
B17: HL161AN variant No. 3 (LC:N25S, HC:Q82S) (antibody, human IgG1, V domains shown)
VL: B1 VL with N25S
VH: B1 VH with Q82S
notes: Variable domains only
B18: HL161AN variant No. 5 (LC:N25S, HC:Q82E) (antibody, human IgG1, V domains shown)
VL: B1 VL with N25S
VH: B1 VH with Q82E
notes: Variable domains only

target: T1, shFcRn (soluble human FcRn) (human, UniProt P55899 24-297; P61769 21-119); test: SPR, shFcRn immobilized on chip, antibody as analyte, pH 6.0;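 also: kinetics fitted with a 1:1 Langmuir model, association 200 s and dissociation 600 s, samples diluted in PBST, double-referenced signals, values averaged across three shFcRn-coated cells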
T1 construct: extracellular domain; Printed only as 'soluble human FcRn'; also called hFcRn (immobilized on a chip)
Procedure: (§1) Kinetic analysis was performed using a 1:1 Langmuir binding model, and the average KD value was obtained by repeating the analysis 6 times in each condition of pH 6.0 and pH 7.4.
(§2) Chip activation was performed under EDAC/NHS 0.5×, 30 μL/min, and 300 sec conditions. Thereafter, shFcRn was prepared at 2 μg/mL, 250 μL using an acetate buffer (pH 5.5), and immobilization was performed while flowing at 30 μL/min. The reaction was stopped when the immobilization level corresponded to 200 RU to 300 RU. Thereafter, deactivation was performed using ethanolamine at 30 μL/min, 300 sec. […] Sample dilution was performed using 1×PBST (pH 7.4) or 1×PBST (pH 6.0) buffer depending on the analysis pH. In the sample analysis conditions, association was carried out by reaction at 50 μL/min, 200 sec, and dissociation was carried out by reaction at 50 μL/min, 600 sec. Thereafter, reaction was carried out using a glycine buffer (pH 2.0) at 100 μL/min, 18 sec to perform regeneration. For kinetic analysis, samples were prepared and reacted once in three cells to which shFcRn was immobilized. Then three kinetic values were obtained, and then an average KD value was measured. When analyzing reaction signals, interspot-referencing and signals in which only buffer was analyzed were used for a double-referencing.

| Kd | koff | kon | Binder |
| --- | --- | --- | --- |
| 0.116 nM | – | – | B1 |
| 0.129 nM | 0.000463 s⁻¹ | 3.58e+06 M⁻¹ s⁻¹ | B2 |
| 0.181 nM | 0.000549 s⁻¹ | 3.02e+06 M⁻¹ s⁻¹ | B3 |
| 0.271 nM | 0.000556 s⁻¹ | 2.05e+06 M⁻¹ s⁻¹ | B4 |
| 0.152 nM | – | – | B5 |
| 0.208 nM | 0.000558 s⁻¹ | 2.68e+06 M⁻¹ s⁻¹ | B6 |
| 0.205 nM | 0.000573 s⁻¹ | 2.8e+06 M⁻¹ s⁻¹ | B7 |
| 0.2 nM | 0.000509 s⁻¹ | 2.54e+06 M⁻¹ s⁻¹ | B8 |
| 0.275 nM | 0.000575 s⁻¹ | 2.09e+06 M⁻¹ s⁻¹ | B9 |
| 0.163 nM | – | – | B10 |
| 0.198 nM | 0.000562 s⁻¹ | 2.84e+06 M⁻¹ s⁻¹ | B11 |
| 0.206 nM | 0.000552 s⁻¹ | 2.67e+06 M⁻¹ s⁻¹ | B12 |
| 0.156 nM | – | – | B13 |
| 0.169 nM | 0.000538 s⁻¹ | 3.19e+06 M⁻¹ s⁻¹ | B14 |
| 0.265 nM | 0.000601 s⁻¹ | 2.27e+06 M⁻¹ s⁻¹ | B15 |
| 0.177 nM | – | – | B16 |
| 0.145 nM | – | – | B17 |
| 0.229 nM | 0.000563 s⁻¹ | 2.46e+06 M⁻¹ s⁻¹ | B18 |

target: T2, hFcRn on hFcRn-expressing HEK293 cells (human, UniProt P55899 24-365; P61769 21-119); test: FACS on hFcRn HEK293 cells, pH 6.0; head prints 'FACS binding (EC50, nM)', taken as blocking of competitor Alexa488-hIgG1 (Example 4.5)
T2 construct: whole, on cells; also called hFcRn HEK293
Procedure: (§3) 1×10⁷ hFcRn HEK293 cells were seeded into a T75 flask and cultured for 24 hours. After culturing, the cells were removed and placed in a 96 well plate at 1×10⁵ cells for each sample in duplicate. […] After the reaction was completed, it was centrifuged to remove the supernatant. 200 μL of the reaction buffer was added to resuspend the cell pellet, and then the MFI value was measured in a FACS instrument.

| EC50 | Binder |
| --- | --- |
| 1.83 nM | B1 |
| 1.44 nM | B2 |
| 1.65 nM | B3 |
| 1.74 nM | B4 |
| 1.28 nM | B5 |
| 1.29 nM | B6 |
| 1.37 nM | B7 |
| 1.16 nM | B8 |
| 1.14 nM | B9 |
| 1.31 nM | B10 |
| 1.15 nM | B11 |
| 1.11 nM | B12 |
| 1.47 nM | B13 |
| 1.3 nM | B14 |
| 1.1 nM | B15 |
| 1.43 nM | B16 |
| 1.4 nM | B17 |
| 1.46 nM | B18 |

target: T2, hFcRn on hFcRn-expressing HEK293 cells; test: FACS on hFcRn HEK293 cells, 10 nM antibody, pH 6.0
Procedure: (§4) The analysis of hFcRn binding using FACS was carried out under two conditions of pH 6.0 and pH 7.4. hFcRn-expressing 1TEK293 (hFcRn HEK293) cells were diluted with the reaction buffer (0.0500 BSA in PBS, pH 6.0 or pH 7.4) and prepared in duplicate in a 96 well plate at 1×10⁵ cells for each sample. In addition, each antibody sample was diluted with the reaction buffer to 10 nM, and then put into a 96 well plate, and incubated at 4° C. for 90 minutes. Thereafter, the plate was centrifuged to remove the supernatant, and then Alexa488-goat anti-hIgG Ab (1:200) was added thereto, and again incubated at 4° C. for 90 minutes. After the reaction was completed, it was centrifuged to remove the supernatant, and 200 μL of the reaction buffer was added to resuspend the cell pellet, and then the MFI value was measured in a FACS instrument.

| MFI | Binder |
| --- | --- |
| 2720 MFI | B1 |
| 2720 MFI | B2 |
| 2770 MFI | B3 |
| 2540 MFI | B4 |
| 2550 MFI | B5 |
| 2590 MFI | B6 |
| 2580 MFI | B7 |
| 2520 MFI | B8 |
| 2640 MFI | B9 |
| 2650 MFI | B10 |
| 2520 MFI | B11 |
| 2430 MFI | B12 |
| 2690 MFI | B13 |
| 2640 MFI | B14 |
| 2570 MFI | B15 |
| 2660 MFI | B16 |
| 2440 MFI | B17 |
| 2570 MFI | B18 |

target: T1, shFcRn (soluble human FcRn); test: SPR, shFcRn immobilized on chip, antibody as analyte, pH 7.4;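 also: kinetics fitted with a 1:1 Langmuir model, association 200 s and dissociation 600 s in PBST, double-referenced against buffer-only and interspot signals, values averaged over repeated runs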
Procedure: as §1, §2

| Kd | koff | kon | Binder |
| --- | --- | --- | --- |
| 0.294 nM | – | – | B1 |
| 0.122 nM | 0.000392 s⁻¹ | 3.22e+06 M⁻¹ s⁻¹ | B2 |
| 0.209 nM | 0.000499 s⁻¹ | 2.38e+06 M⁻¹ s⁻¹ | B3 |
| 0.272 nM | 0.000504 s⁻¹ | 1.86e+06 M⁻¹ s⁻¹ | B4 |
| 0.187 nM | – | – | B5 |
| 0.283 nM | 0.000551 s⁻¹ | 1.95e+06 M⁻¹ s⁻¹ | B6 |
| 0.256 nM | 0.000494 s⁻¹ | 1.93e+06 M⁻¹ s⁻¹ | B7 |
| 0.283 nM | 0.00056 s⁻¹ | 1.98e+06 M⁻¹ s⁻¹ | B8 |
| 0.226 nM | 0.000542 s⁻¹ | 2.39e+06 M⁻¹ s⁻¹ | B11 |
| 0.209 nM | 0.000499 s⁻¹ | 2.39e+06 M⁻¹ s⁻¹ | B12 |
| 0.24 nM | – | – | B13 |
| 0.249 nM | 0.000566 s⁻¹ | 2.27e+06 M⁻¹ s⁻¹ | B14 |
| 0.279 nM | 0.000513 s⁻¹ | 1.84e+06 M⁻¹ s⁻¹ | B15 |
| 0.245 nM | – | – | B16 |
| 0.199 nM | – | – | B17 |
| 0.637 nM | 0.000743 s⁻¹ | 1.17e+06 M⁻¹ s⁻¹ | B18 |

target: T2, hFcRn on hFcRn-expressing HEK293 cells; test: FACS on hFcRn HEK293 cells, pH 6.0, high concentration sample; head prints 'FACS binding (EC50, nM)', taken as blocking of competitor Alexa488-hIgG1 (Example 5.5)
Procedure: as §3
The evaluation of hFcRn blocking was performed at 0.1 nM, 1 nM, 10 nM, and 100 nM using FACS.

| EC50 | Binder |
| --- | --- |
| 0.91 nM | B1 |
| 0.69 nM | B2 |
| 0.69 nM | B3 |
| 0.62 nM | B9 |

target: T2, hFcRn on hFcRn-expressing HEK293 cells; test: FACS on hFcRn HEK293 cells, 10 nM antibody, pH 7.4, high concentration sample
Procedure: as §4

| MFI | Binder |
| --- | --- |
| 7160 MFI | B1 |
| 6730 MFI | B2 |
| 7700 MFI | B3 |
| 7910 MFI | B9 |

target: T1, shFcRn (soluble human FcRn); test: SPR, hFcRn immobilized on chip, pH 7.4
Procedure: as §1, §2

| Kd | Binder |
| --- | --- |
| 0.27 nM | B1 |
| 0.12 nM | B2 |
| 0.21 nM | B3 |
| 0.43 nM | B4 |
| 0.21 nM | B5 |
| 0.35 nM | B6 |
| 0.36 nM | B7 |
| 0.35 nM | B8 |
| 0.36 nM | B9 |
| 0.33 nM | B11 |
| 0.3 nM | B12 |
| 0.27 nM | B13 |
| 0.3 nM | B14 |
| 0.36 nM | B15 |
| 0.21 nM | B17 |
| 0.67 nM | B18 |

target: T2, hFcRn on hFcRn-expressing HEK293 cells; test: FACS on hFcRn HEK293 cells, 10 nM antibody, pH 6.0, high concentration sample
Procedure: as §4

| MFI | Binder |
| --- | --- |
| 2950 MFI | B1 |
| 3270 MFI | B2 |
| 3390 MFI | B3 |
| 3240 MFI | B9 |

target: T2, hFcRn on hFcRn-expressing HEK293 cells; test: FACS on hFcRn HEK293 cells, 10 nM antibody, pH 7.4
Procedure: as §4

| MFI | Binder |
| --- | --- |
| 6150 MFI | B1 |
| 6460 MFI | B2 |
| 6940 MFI | B3 |
| 6210 MFI | B4 |
| 6620 MFI | B5 |
| 6490 MFI | B6 |
| 6660 MFI | B7 |
| 5840 MFI | B8 |
| 6470 MFI | B9 |
| 6920 MFI | B10 |
| 6910 MFI | B11 |
| 6030 MFI | B12 |
| 6300 MFI | B13 |
| 6750 MFI | B14 |
| 6540 MFI | B15 |
| 6750 MFI | B16 |
| 6240 MFI | B17 |
| 6350 MFI | B18 |

target: T1, shFcRn (soluble human FcRn); test: SPR, hFcRn immobilized on chip, pH 6.0
Procedure: as §1, §2

| Kd | Binder |
| --- | --- |
| 0.12 nM | B2 |
| 0.18 nM | B3 |
| 0.33 nM | B4 |
| 0.2 nM | B6 |
| 0.15 nM | B7 |
| 0.17 nM | B8 |
| 0.32 nM | B9 |
| 0.13 nM | B10 |
| 0.25 nM | B11 |
| 0.18 nM | B12 |
| 0.22 nM | B14 |
| 0.33 nM | B15 |
| 0.16 nM | B16 |
| 0.16 nM | B18 |
